The test system of assay [1] is human, bone marrow derived CD34+ cells. Kind of assay: C/BFU-e assay (erythroid colonies). The class given is cell-based. Particulars: 14 days, 90% of maximum colonies relative to EPO control. As to the method: EPO-R signaling stimulates the differentiation of bone marrow stem cells into proliferating red blood cell precursors. This assay measures the ability of test peptides to stimulate the proliferation and differentiation of red blood cell precursors from primary human bone marrow pluripotent stem cells.
For this assay, serial dilutions of test peptide are made in IMDM medium (Gibco) supplemented with 10% FBS (Hyclone). These serial dilutions, or positive control EPO peptide, are then added to methylcellulose to give a final volume of 1.5 mL. The methylcellulose and peptide mixture is then vortexed thoroughly. Aliquots (100,000 cells/mL) of human, bone marrow derived CD34+ cells (Poietics/Cambrex) are thawed. The thawed cells are gently added to 0.1 mL of 1 mg/ml DNAse (Stem Cells) in a 50 mL tube. Next, 40-50 mL IMDM medium is added gently to cells: the medium is added drop by drop along the side of the 50 mL tube for the first 10 mL, and then the remaining volume of medium is slowly dispensed along the side of the tube. The cells are then spun at 900 rpm for 20 min, and the media removed carefully by gentle aspiration. The cells are resuspended in 1 ml of IMDM medium and the cell density per mL is counted on hemacytometer slide (10 μL aliquot of cell suspension on slide, and cell density is the average count×10,000 cells/ml). The cells are then diluted in IMDM medium to a cell density of 15,000 cells/mL. A 100 μL of diluted cells is then added to each 1.5 mL methyl cellulose plus peptide sample (final cell concentration in assay media is 1000 cells/mL), and the mixture is vortexed. Allow the bubbles in the mixture to disappear, and then aspirate 1 mL using blunt-end needle. Add 0.25 mL aspirated mixture from each sample into each of 4 wells of a 24-well plate (Falcon brand). Incubate the plated mixtures at 37° C. under 5% CO2 in a humid incubator for 14 days. Score for the presence of erythroid colonies using a phase microscope (5×-10× objective, final magnification of 100×). The concentration of test peptide at which the number of formed colonies is 90% of maximum, relative to that observed with the EPO positive control, is recorded as the EC90 [See Table 2: C/BFU-e EC90].
For this assay, serial dilutions of test peptide are made in IMDM medium (Gibco) supplemented with 10% FBS (Hyclone). These serial dilutions, or positive control EPO peptide, are then added to methylcellulose to give a final volume of 1.5mL. The methylcellulose and peptide mixture is then vortexed thoroughly. […] The cells are resuspended in 1 ml of IMDM medium and the cell density per mL is counted on hemacytometer slide (10 μL aliquot of cell suspension on slide, and cell density is the average count×10,000 cells/ml). […]

In assay [2] the target is T1, Recombinant Human EPO R/Fc Chimera (R&D Systems, catalog number 963-ER) (human, UniProt P19235 25-250).
T1 construct: extracellular domain; Bought reagent; also called recombinant EPOr extracellular domain fused to the Fc portion of human IgG1; recombinant erythropoietin receptor; not shown: Fc portion of human IgG1
T1 sequence (looked up): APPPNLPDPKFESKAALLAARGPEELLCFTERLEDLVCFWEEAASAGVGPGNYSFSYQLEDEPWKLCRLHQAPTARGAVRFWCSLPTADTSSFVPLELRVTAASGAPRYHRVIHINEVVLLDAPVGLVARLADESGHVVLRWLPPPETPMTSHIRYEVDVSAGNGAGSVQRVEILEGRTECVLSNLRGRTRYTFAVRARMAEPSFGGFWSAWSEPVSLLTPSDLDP
Kind of assay: radioligand competition: displacement of 125I-EPO from recombinant human EPO R/Fc, Protein-G Sepharose pull-down. In general terms: Displacement assays read how much labelled ligand stays bound in the presence of the test substance.

Assay [3] has as its target T2, human EPO-R on cells (BaF3/Gal4/Elk/EPOR cells; human bone marrow derived CD34+ cells) (human, UniProt P19235 25-508).
T2 sequence (looked up): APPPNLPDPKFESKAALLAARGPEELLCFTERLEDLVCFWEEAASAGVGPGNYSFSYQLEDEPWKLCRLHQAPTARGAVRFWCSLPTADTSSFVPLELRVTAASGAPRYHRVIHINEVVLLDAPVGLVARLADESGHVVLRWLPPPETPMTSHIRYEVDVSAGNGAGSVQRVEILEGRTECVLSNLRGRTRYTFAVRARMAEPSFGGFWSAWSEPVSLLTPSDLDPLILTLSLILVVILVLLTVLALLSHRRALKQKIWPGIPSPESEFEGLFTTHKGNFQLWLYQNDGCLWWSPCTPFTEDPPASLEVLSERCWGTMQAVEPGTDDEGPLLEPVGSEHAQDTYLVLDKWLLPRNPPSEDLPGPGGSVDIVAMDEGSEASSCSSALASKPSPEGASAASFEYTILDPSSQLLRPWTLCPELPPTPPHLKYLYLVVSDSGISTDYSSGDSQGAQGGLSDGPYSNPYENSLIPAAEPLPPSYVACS
Briefly: cell-based or functional assay.

Assay [4] addresses T3, chimeric receptor comprising the extra-cellular portion of the human EPO receptor to the intra-cellular … (human, UniProt P19235 25-250; Q99062 651-836, limits assumed).
T3 sequence (looked up): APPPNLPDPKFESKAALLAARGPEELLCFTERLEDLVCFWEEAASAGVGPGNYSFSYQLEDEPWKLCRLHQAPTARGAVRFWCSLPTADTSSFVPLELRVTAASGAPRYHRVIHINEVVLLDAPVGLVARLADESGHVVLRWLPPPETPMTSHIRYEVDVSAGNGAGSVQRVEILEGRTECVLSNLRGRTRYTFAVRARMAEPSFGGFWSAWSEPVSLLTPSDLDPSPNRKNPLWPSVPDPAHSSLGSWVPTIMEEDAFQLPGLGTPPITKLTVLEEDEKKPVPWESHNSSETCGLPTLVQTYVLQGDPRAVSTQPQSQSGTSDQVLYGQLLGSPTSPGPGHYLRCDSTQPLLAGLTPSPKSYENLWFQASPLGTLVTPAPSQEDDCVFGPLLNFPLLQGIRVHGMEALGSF
Briefly: cell-based or functional assay.

In assay [5] the target is T2, human EPO-R on cells …. Kind of assay: cell-based or functional assay. The source holds these as a separate data set.
Assay [6] has as its target T3, chimeric receptor comprising the …. Briefly: cell-based or functional assay. The source holds these as a separate data set.
Assay [7] concerns the target T4, recombinant EPO-R produced in Chinese Hamster Ovary cells as a fusion protein to a portion of the human … (human, UniProt P19235 25-250).
T4 construct: In the assay it was held on protein A acceptor beads through antibody ab179
T4 sequence (looked up): T1 sequence (looked up)
Briefly: competitive binding; the column head says only 'IC50 (pM)', the text ties Table 2 to the AQ bead proximity assay with tracer SEQ ID NO: 4 as competitor.

Read-outs that look alike come from different tables or passages of the source. Bridge positions count the residues as written; N and C are the ends. Square brackets hold non-standard residues; d marks the D form. Ends that are not written are not given here. 1Nal = N[C@@H](Cc1cccc2ccccc12)C(=O)O; Sar = CNCC(=O)O

The term EC90 denotes the concentration at which the effect reaches the 90% level. Low values mean greater potency, high ones weaker potency. “PEGylated peptide dimer of (AcG)GLYACHMGPIT(1-nal)VCQPLR(MeG) (SEQ ID NO: 3), EPO-R agonist [Peptide III] (Ac-GGLYACHMGPIT[1Nal]VCQPLR[Sar]; disulfide 6-15 (inferred); also: homodimer, C-termini joined to a lysine linker, PEGylated)”: in assay [1], the 90% effect level (EC90) was put at 2.7 nM.

In assay [1], “PEGylated peptide dimer of (AcG)GLYACHMGPIT(1-nal)VCQPLR(MeG) (SEQ ID NO: 3), EPO-R agonist [Peptide II] (Ac-GGLYACHMGPIT[1Nal]VCQPLR[Sar]; disulfide 6-15 (inferred); also: homodimer, C-termini joined to a lysine linker, PEGylated)” yielded an EC90 of 2.2 nM.

The molecule “Peptide IV: PEGylated peptide dimer of (AcG)GLYACHMGPIT(1-nal)VCQPLRK (SEQ ID NO: 1), EPO-R agonist (Ac-GGLYACHMGPIT[1Nal]VCQPLRK; disulfide 6-15 (inferred); also: PEGylated peptide dimer)” returned an EC90 in assay [1] of 6.2 nM.

B1: Peptide I (SEQ ID NO: 2) (peptide)
peptide: Ac-GGLYACHMGPIT[1Nal]VCQPLR[Sar]K
modifications: disulfide 6-15 (inferred); also: K21 ε-amine joined to branched tertiary amide linker bearing PEG
A word on the IC50: it is the concentration that gives 50% inhibition. B1: the half-inhibitory concentration (IC50) in assay [2] amounted to 0.111 nM. Further, the “Proliferation EC50 (pM)” value in assay [3] came to 165 pM. The “Reporter EC50 (pM)” value in assay [4] is 195 pM.

B2: Peptide III (SEQ ID NO: 3) (peptide)
peptide: Ac-GGLYACHMGPIT[1Nal]VCQPLR[Sar]
modifications: disulfide 6-15 (inferred); also: C-termini joined to α- and ε-amines of a Lys linker carrying spacer and PEG
For the molecule B2, the “Proliferation EC50” value in assay [5] was 72 nM. For the same molecule, in assay [6], the “Reporter EC50 (pM)” value is 150 pM.

B3: Peptide II (SEQ ID NO: 3) (peptide)
peptide: Ac-GGLYACHMGPIT[1Nal]VCQPLR[Sar]
modifications: disulfide 6-15 (inferred); also: C-termini joined to α- and ε-amines of a Lys linker carrying spacer and PEG
With B3, the IC50 in assay [7] came out at 0.11 nM.
